This experiment concerns the target T1, recombinant coagulation factor VIII protein (Homo sapiens (Human), UniProt P00451 20-2351).
T1 construct: Recombinant protein isolated from a cell culture solution; also called recombinant coagulation factor FVIII; FVIII
T1 sequence: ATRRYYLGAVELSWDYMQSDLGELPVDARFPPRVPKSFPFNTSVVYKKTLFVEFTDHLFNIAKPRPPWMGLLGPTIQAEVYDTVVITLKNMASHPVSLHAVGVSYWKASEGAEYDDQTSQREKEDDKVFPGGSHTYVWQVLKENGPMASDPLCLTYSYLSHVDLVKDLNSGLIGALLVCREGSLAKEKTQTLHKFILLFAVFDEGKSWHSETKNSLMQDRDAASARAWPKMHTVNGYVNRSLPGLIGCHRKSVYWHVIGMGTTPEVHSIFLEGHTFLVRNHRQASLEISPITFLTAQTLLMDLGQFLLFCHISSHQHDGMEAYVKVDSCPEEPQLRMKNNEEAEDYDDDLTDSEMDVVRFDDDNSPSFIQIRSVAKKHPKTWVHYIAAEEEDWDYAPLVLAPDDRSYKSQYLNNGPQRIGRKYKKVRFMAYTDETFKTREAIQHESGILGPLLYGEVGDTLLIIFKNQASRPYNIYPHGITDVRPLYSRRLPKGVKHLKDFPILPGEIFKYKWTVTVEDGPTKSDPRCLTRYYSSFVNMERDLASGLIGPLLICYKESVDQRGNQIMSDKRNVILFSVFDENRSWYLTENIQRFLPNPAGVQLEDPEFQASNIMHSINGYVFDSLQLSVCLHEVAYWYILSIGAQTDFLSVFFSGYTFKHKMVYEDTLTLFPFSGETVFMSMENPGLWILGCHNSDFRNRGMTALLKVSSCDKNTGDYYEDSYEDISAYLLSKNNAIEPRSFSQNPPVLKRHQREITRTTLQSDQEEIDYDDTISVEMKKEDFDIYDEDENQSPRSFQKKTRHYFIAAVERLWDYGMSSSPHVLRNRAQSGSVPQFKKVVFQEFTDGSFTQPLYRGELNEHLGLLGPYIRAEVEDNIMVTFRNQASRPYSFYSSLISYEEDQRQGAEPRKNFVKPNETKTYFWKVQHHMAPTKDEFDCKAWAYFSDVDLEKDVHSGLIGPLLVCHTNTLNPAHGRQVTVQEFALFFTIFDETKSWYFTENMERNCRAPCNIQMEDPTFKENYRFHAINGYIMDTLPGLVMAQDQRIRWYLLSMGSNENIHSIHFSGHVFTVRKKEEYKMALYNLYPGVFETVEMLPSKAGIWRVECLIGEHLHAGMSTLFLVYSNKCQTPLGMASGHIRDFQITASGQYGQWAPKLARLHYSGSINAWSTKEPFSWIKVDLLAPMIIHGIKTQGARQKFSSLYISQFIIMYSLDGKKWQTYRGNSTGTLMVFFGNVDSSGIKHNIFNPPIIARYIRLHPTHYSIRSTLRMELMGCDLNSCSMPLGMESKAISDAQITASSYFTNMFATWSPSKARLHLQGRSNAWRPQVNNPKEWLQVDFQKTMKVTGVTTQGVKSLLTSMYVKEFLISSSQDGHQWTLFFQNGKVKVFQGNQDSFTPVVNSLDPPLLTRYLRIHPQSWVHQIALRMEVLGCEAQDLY
In words: SPR, Biacore T200, FVIII immobilised on CM5 chip, antibody as analyte, 1:1 model. The method, then: The kinetic affinity (Ka, Kd, KD) between the purified antibody protein and the recombinant coagulation factor FVIII protein through antigen-antibody reaction was measured by a SPR (surface plasmon resonance) method.
The CM5 chip was mounted on a Biacore T200 instrument, and the recombinant coagulation factor FVIII protein as a ligand was diluted in a 10 mM sodium acetate buffer (pH 5.0) and injected into a sample channel for 10 minutes for immobilization. The purified antibody protein, as the analyte, was prepared at a concentration of 2 μM by diluting with a buffer and was then serially diluted to ten concentrations (0.0039, 0.0078, 0.015, 0.031, 0.062, 0.125, 0.25, 0.5, 1, 2 μM). Association and dissociation times were set to 3 minutes and 4 minutes, respectively, and association and dissociation were measured.
BIAevaluation analysis software was used to analyze the kinetic affinity of the purified antibody protein and the recombinant coagulation factor FVIII protein. The association force, dissociation force and dissociation constant were calculated as follows by applying ten concentrations of association/dissociation data to a 1:1 kinetic binding model (A+B↔AB).

In patent publication US20200277401A1 (PANGEN BIOTECH, published 2020) one finds Kd, koff and kon data, which are given here for one molecule.

B1: anti-FVIII antibody (purified antibody protein produced by the ADBA1013-14 CHO cell line from the heavy and light chain genes of hybridoma clone 3F6-2-5) (antibody, mouse IgG1, V domains shown)
VH: EVKIEESGGGLVQPGGSMKLSCAASGFTFSDAWMDWVRQSPEKGLEWVAEIRSKAKNHATNYAESVKGRFTISRDDSKSRVYLQMNTLRAEDTGIYYCTNYHFWGPGTTLTVS
VL: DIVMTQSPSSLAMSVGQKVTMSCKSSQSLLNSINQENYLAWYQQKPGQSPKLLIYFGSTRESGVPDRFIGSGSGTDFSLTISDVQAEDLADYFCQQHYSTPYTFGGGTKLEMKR
modifications: N-glycan on Asparagine No. 288 of the heavy chain
notes: The full chains are in the listing under one of these numberings; The hybridoma antibody 3F6-2-5 and the recombinant CHO product are treated as one molecule (same genes); also called purified anti-FVIII antibody protein; anti-coagulation factor VIII antibody
As a reminder, the Kd is the equilibrium constant for the complex coming apart. By koff is commonly meant the rate constant with which the complex falls apart. As a reminder, the kon is the rate constant with which the complex forms. On to B1, for which the Kd was determined as 55.3 nM, the off-rate constant (koff) was 0.00068 s⁻¹ and the kon is 12300 M⁻¹ s⁻¹.
